From article PMC11827763, “A Gold Nanoparticle-based Aptasensor for Specific Detection of CA125”

Target: CA125 (carbohydrate antigen 125) (UniProt Q8WXI7 1-14451)
Assay: AuNP aggregation aptasensor (A660/A520); 200 nM aptamer, citrate AuNPs ~13 nm, NaCl 1 M stock added after binding; linear 15-160 U/mL, LOD 14.41 U/mL; 50 uL CA125 (15-160 U/mL) + 50 uL aptamer (200 nM), 30 min, room temperature; then 50 uL AuNPs 5 min, 10 uL 1 M NaCl 5 min; buffer and pH not stated
Settings: protein: commercial; predicted stem-loop

TCACTATAGGGAGACAAGAATAAACGCTCAA (ssDNA) [CA125 aptamer (31-mer)]: binds.
